Measurements as given in the nanobody polyreactivity screen of Harvey et al. (2022).

Assay: yeast display, Sf9 membrane polyspecificity reagent, FACS + sequencing; frameworks hold sequencing errors
How it was run: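 Galactose induction of a Saccharomyces cerevisiae BJ5465 synthetic nanobody display library ran 36–48 hours. The cells were then stained for 1 hour at 4 °C with 10% biotinylated, detergent-solubilized Sf9 membrane reagent, pulled down on streptavidin microbeads and FACS-sorted into low and high (top ~1%) gates on expression and reagent-binding fluorescence. Labels for polyreactivity follow the gate of origin.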

Sequence	polyreactivity (PSR sort gate)
QVHLVESGGGLVQAGGSLRLSCAASGRTFSTYAMGWYRQAPGKESELVAAISSGGGRTYYADSVKGRFTISRDNAKNTVYLQMNSLKPEDTAVYYCAADRYFRSRRSYEYWGQGTQVTVSS	low polyreactivity
QVHLVESGGGLVQAGGSLRLSCAASGRTFVAYAMGWYRQAPAKERELVARISSGGSTYYADSVKGRFTISRDNAKNTVYLQMNSLKPEDTAVYYCAADRGPFFVPWRRYDYWGQGTEVTVSS	low polyreactivity
QVHLVESGGGLVQAGGSLRLSCAASGRTFWDYAMRWYRQAPGKEREFVAAINTYGGRTYYADSVKGRFTISRDNAINTVYLQMNSLKPEDTAVYYCADRTRDRAYDSWGQGTEVTVSS	high polyreactivity
QVHLVESGGGLVQAGGSLRLSCAASGRTIGWNVMGWYRQAPGKERELVAAISGSGITYADSVKGRFTISRDNAKNTVYLQMNSLKPEDTAVYYCAARARRYTDEYDYWGQGTQVTLSS	low polyreactivity
QVHLVESGGGLVQAGGSLRLSCAASGRTLRSYAMGWYRQAPGKERELVAAINWRDTNTYYADSVKGRFTISRDNAKNTVYLQMNSLKPEDTAVYYCAARYYSRGWRYNYWGPGTQVTVSS	high polyreactivity
QVHLVESGGGLVQAGGSLRLSCAASGRTYIRNAMGWYRQAPGKERELVAAISSRGGRTYYADSVKGRFTISRDNAKNTVYLQMNSLKPEDTAVYYCAADFTYKLDGYDYWGQGTQVTVSS	high polyreactivity
QVHLVESGGGLVQAGGSLRLSCAASGSIFDYYAMGWYRQAPGKERELVAAITYDSGRTYYADSVKGRFTNSRDNAKNTVYLQMYSLKPEDTAVYYCNKYSYSWRYCPGTSGYDYWGQGTQVTVSS	low polyreactivity
QVHLVESGGGLVQAGGSLRLSCAASGSIFGYNAMGWYRQAPGKERELVAAITWRGGSTYYADSVKGRFTISRDNAKNTVYLQMNSLKPEDTAVYYCAAYVYQEYDYWGQGTQVTVSS	high polyreactivity
QVHLVESGGGLVQAGGSLRLSCAASGSIFGYNTMGWYRQAPGKERELVATISGSGGSSYYADSVKGRFTISRDNAKNTVYLQMNSLKPEDTSVYYCAARAYSRYRRTYDYWGQGTQVTVSS	high polyreactivity
QVHLVESGGGLVQAGGSLRLSCAASGSIFITYAMVWYRQAPGKERELVAAIRDSGDRTYYADSVKGRFTISRDNAKNTVYLQMNSLKPEDTAVYYCNARWQEPLKYDYWGQGTKVTVSS	low polyreactivity
QVHLVESGGGLVQAGGSLRLSCAASGSIFLVYAMGWYRPAPGKERELVAVISNGGRTNYADSVKGRFTISRDNAKNTVYLQMNSLKPEDTAVYYCAVRGPTDYWADPYSAGDHWGQGTQVTVSS	high polyreactivity
QVHLVESGGGLVQAGGSLRLSCAASGSIFPYYVMGWYRQAPGKERELVAAISSGGNTYYADSVKGRFTISRDNAKNTVYLQMNSLKPEDTAVYYCNADKSYFVLLFGGYDYWGQGTQVTVSS	high polyreactivity
QVHLVESGGGLVQAGGSLRLSCAASGSIFRSYAMGWYRQAPGKERELVAGISWSGGSTYYADSVKGRFTISRDNAKNTVYLQMNSLKPEDTPVYYCDADIKIRLYTTGDYWGQGTQVTVSS	low polyreactivity
QVHLVESGGGLVQAGGSLRLSCAASGSIFSGYAMGWYRQAPGKEREFVAAISSSGGRTYYADSVKGRFTISRDNAKNTVYLQINSLKPEDTAVYYCNARRWPFNYDYWGQGTQVTVSS	high polyreactivity
QVHLVESGGGLVQAGGSLRLSCAASGSIFSSYAMGWYRQAPGKEREFVAAISWGGGSTYYADSVKGRFTISRDNAKNSVYLQMNSLKPEDTAVYYCAVETWLYPYDYWGQGTQVTVSS	high polyreactivity
QVHLVESGGGLVQAGGSLRLSCAASGSIFTRYVMGWYRQAPGKERELVAAISWSGGSTYYADSVKGRFTISRDNAKNTVYLQMNSLKPEDTAVYYCAAYYWYWSAAWWDEGEMEYWGQGTQVTVSS	high polyreactivity
QVHLVESGGGLVQAGGSLRLSCAASGSIFYKYVMGWYRQAPGKERELVAAISRGGGSTYYADSVKGRFTISRDNAKNTVYLQMNSLKPEDTAVYYCNAVGRPRYGHGFDHWGQGTQVTVSS	high polyreactivity
QVHLVESGGGLVQAGGSLRLSCAASGSIISRYTMGWYRQAPGKERELVAAITSSGGSTYYADSVKGRFTISRDNAKNTVYLQMNSLKPEDTAVYYCNKVNRYGKFDYWGQGTQVTVSS	high polyreactivity
QVHLVESGGGLVQAGGSLRLSCAASGSINYYAMGWYRQAPGKERELVAAITGSGGSTYYADSVKGRFTISRDNAKNTVYLQMNSLKPEDTAVYYCAARYGYIYGPYYYWGQGTQVTVSS	high polyreactivity
QVHLVESGGGLVQAGGSLRLSCAASGSNIYNNAMGWYRQAPGTERELVAAIRSTGTRTYYADSVKGRFTISRDNAKNPVNLQMNSLKPEDTAVYYCAVGDYGLWSYDYWGQGTQVTVSS	low polyreactivity
QVHLVESGGGLVQAGGSLRLSCAASGSSFRYYAMGWYRQAPGKERELVAAISGSGGRTYYADSVKGRFTISRDNEKNNVYLQMNSLKPEDTAVYYCAAQSGYYDSAYGYWGQGTKVTVSS	high polyreactivity
QVHLVESGGGLVQAGGSLRLSCAASGSTFATNAMGWYRQAPGIERELVAAITDGGSTNYADSVKGRFTISRDNAKNTVYLQMNSLKPEDTAVYYCAADGFKTVLPEYDYWGQGTQVTVSS	low polyreactivity

Sequence	polyreactivity (PSR sort gate)
QVHLVESGGGLVQAGGSLRLSCAASGSTFDHYAMAWYRQAPGKERELVASITLSGGSTYYADSVKGRFTISRDNAKNTVYLQMNSLKPEDTAVYYCAAVVVYPYRLGYDYWGQGTQVTVSS	low polyreactivity
QVHLVESGGGLVQAGGSLRLSCAASGSTFDTYAMGWYRQAPGKERELVAAISYRGGNTYYADSVKGRFTISRDNAKNTVYLQMNSLKPEDTAVYYCNAGVSIGRSRRYDYWGQGTQVTVSS	low polyreactivity
QVHLVESGGGLVQAGGSLRLSCAASGSTFFKNAMGWYRQAAGKERELVAAITWSGDRTYADSVKGRFTISRDNAKYTVYLQMNSLKPEDTAVYYCNVDITGYEDDYWGQGTQVTVSS	low polyreactivity
QVHLVESGGGLVQAGGSLRLSCAASGSTFIYNTMGWYRQAPGKERELVATITDSSDSTNYADSVKGRFTITRDNAKNTVYLQMNSLKPDDTAVYYCAADGEVDIATYPSQITDYDYWGQGTQVTVSS	low polyreactivity
QVHLVESGGGLVQAGGSLRLSCAASGSTFPRYSMGWYRQAPGTERELVAAITQSGGRTYYADSVKGSFTISRDNAKNTVYLQMNSRKPEDTAVYYFAAEDGLRGNRLYYWGHGTQVTVSS	high polyreactivity
QVHLVESGGGLVQAGGSLRLSCAASGSTFPWYARGWYRKAPGKERELVAAISGSSSTTYYADSVKGRFTISRDNAMNTVYLQMNSLKPEDTAVYYCNAVTTSGSGYGYWGQGTQVTVSS	low polyreactivity
QVHLVESGGGLVQAGGSLRLSCAASGSTFRIYSMGWYRQAPGKERELVAGITGNGGSTRYADSVKGRFTISRDNAKNTVYLQMNSLKPEDTAVYYCAARWTRQRYRTSYYSWGQGTQVTVSS	high polyreactivity
QVHLVESGGGLVQAGGSLRLSCAASGSTFTDYTIGWYRQAPGKERELVARIRSRGARTYYADSVKGRFTISRDNAKNTVYLQMNSLKPEDTAVNSCNKRWGCLRASPAYDYWGQGTQVTVSS	high polyreactivity
QVHLVESGGGLVQAGGSLRLSCAASGSTFVHYAMGWYRQAPGKERELVADITTGDITNYADSVKGRFTISRDNAKNTVYLQMNSLKQEDTAVYSCNARTRYITSLHQYSLDYWGQGSQVTVSS	low polyreactivity
QVHLVESGGGLVQAGGSLRLSCAASGSTFWGYTMGWYRQAPGKERELVAAISTIGGSTYYADSVKGRFTISRDNAKNTVYLQMNSLKTEDTAVYYCAAYKGKHYKEGYWGQGTQVTVSS	low polyreactivity
QVHLVESGGGLVQAGGSLRLSCAASGSTFYYYAMGWYRQAPGKERELVAVITSGGSTNYADSVKGRFTISRDYAKNSVYLQMNSLKPEDTAVYYCNVGPSTYYQYDYWGQGTQVTVSS	high polyreactivity
QVHLVESGGGLVQAGGSLRLSCAASGSTIDINAMGWYRQAPGKERELVAAISSGGITNYADSVKGRFTISRDNAKNTVYLQMNSLKPEDSAVYYCATQTYTFRWFGSPGWFDYWGQGTQVTVSS	low polyreactivity
QVHLVESGGGLVQAGGSLRLSCAASGSTIRAYAMGWNRQAHVKERELVAAISYSGDSTYYADSVKGRFTISRDNAKNTVYLQMNSLKPEDTAVYYCAADYSYRHYEYDYWGQGTQVSVSS	low polyreactivity
QVHLVESGGGLVQAGGSLRLSCAASGSTIRSYAMGWNRQAPGKERELVARIAYSSGGTYYADSVKGRFTISRDNAKNTVYLQMNSLKPEDTAVYYCAKPSPITSYPRFDYWGQGTQVTVSS	high polyreactivity
QVHLVESGGGLVQAGGSLRLSCAASGSTLFPYAMGWYRQAPGKERELVAAISSRGGRTYYADSVKGRFTISRDNAKNTVYLQMNSLKPEVTAVYYCAAGDDYWGQGTEVTVSS	high polyreactivity
QVHLVESGGGLVQAGGSLRLSCAASGSTSNYYVKVWYGQAPGKERELVASISSGGSTNYADSVKGRFSISRDNAKNSVYLQKNSLKPEDTAVYYCARRRFTHRRYRFDFWGQGTQVTVSS	high polyreactivity
QVHLVESGGGLVQAGGSLRLSCAASGSTSRTYAMGWNRPQPGKERELVAAISSSGGRTTYADSVKGRFTFSRDNAKNTVSLQMNSLKPEDTAVYYCNARTYSYRGYNYWGQGTQVTVSS	high polyreactivity
QVHLVESGGGLVQAGGSLRLSCAATGLTFHKYAMGWYRQSPGKERELVAAISSSGGSTYYADSVKGRFTISRDNAKNTVYLQMNSLKPEDTAVYYCATRLPYYTHAGYNYWGQGTQVTVSS	high polyreactivity
QVHLVESGGGLVQAGGSLRLSCAPSGLTFPYNAMGWYRQAPGKESELVAAISRGGGTNYADSVKGRFTISRDNAKNTVYLQMNSLKPEDTAVYYCAAEYATWWGGYDYSGQGTQVTVSS	low polyreactivity
QVHLVESGGGLVQAGGSLRLSCAPSGRTFFINAMGWYRQAPGKERELVAAIRVGAGSTYYADSVKGRFTISRDNAKNTVYLQMNSLKPEDTAVYYCAAKRVGSREYYWGQGTQVTVSS	high polyreactivity
QVHLVESGGGLVQAGGSLRLSCASTGRISTYYTMVWYRQAPGKERELVAAISWSGTSTYYADSVKGRFTISRDNAKNTVYLQMNSLKPEDTAVYYCNAYFRPRYGYWGQGTQVTVSS	high polyreactivity
